Results on one molecule are retold here after PMC12857291.

The target of data set [1] is T1, MeCP2-MBD WT (UniProt P51608 80-164). The data set can be described thus: EMSA; 20 uM histone H3(15-36)K27me3 peptide; EMSA: 0.5 uM DNA, 0-20 uM protein, 50 mM HEPES pH 7.5, 100 mM NaCl, 1 h at 4 C; 6% native PAGE, 1X TBE, 80 V, 4 C; SYBR Gold; n=3. The settings on record: protein: recombinant; tags: C-terminal 6xHis; label: none (SYBR Gold stain); blunt. On the technique in general: Mobility shift assays separate free from complexed probe on a gel.
T1 sequence (P51608 80-164): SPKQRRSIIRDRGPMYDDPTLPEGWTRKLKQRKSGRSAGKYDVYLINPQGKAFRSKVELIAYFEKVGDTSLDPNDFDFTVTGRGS

The target of data set [2] is T1, MeCP2-MBD WT. Nature of the data set: EMSA; no peptide; EMSA: 0.5 uM DNA, 0-20 uM protein, 50 mM HEPES pH 7.5, 100 mM NaCl, 1 h at 4 C; 6% native PAGE, 1X TBE, 80 V, 4 C; SYBR Gold; n=3. The settings on record: protein: recombinant; tags: C-terminal 6xHis; label: none (SYBR Gold stain); blunt.

B1: BDNF promoter duplex mC/mC (dsDNA)
DNA 1: GCCCTGGAACGGAACTCTTCTGGCC
DNA 2: GGCCAGAAGAGTTCCGTTCCAGGGC
modifications: 5-methyl-dC at position 10 of the top strand and position 15 of the bottom strand (symmetric mCpG)
As a reminder, the Kd is the constant that tells how readily two partners part at equilibrium. Turning to B1, the Kd turned out to be 1300 ± 100 nM with MeCP2-MBD WT [1] and 1200 ± 100 nM with MeCP2-MBD WT [2].
